For this test, the target named is Recombinant human CD8ab protein (extracellular domains of CD8a and CD8b with leucine zippers and tags) (human) (UniProt P01732). Description: ELISA: antigen coated on the plate, antibody titrated, anti-IgG (Fc)-HRP and TMB, A450. On the technique in general: In an ELISA, binding on a coated surface is turned into a signal by an enzyme label.

Broadly, the EC50 (read off the curve) is the concentration needed to bring the measured effect to its halfway point.

Recombinant human CD8ab protein (extracellular domains of CD8a and CD8b with leucine zippers and tags) (human), sequence (P01732 22-182, chain 1 of 2): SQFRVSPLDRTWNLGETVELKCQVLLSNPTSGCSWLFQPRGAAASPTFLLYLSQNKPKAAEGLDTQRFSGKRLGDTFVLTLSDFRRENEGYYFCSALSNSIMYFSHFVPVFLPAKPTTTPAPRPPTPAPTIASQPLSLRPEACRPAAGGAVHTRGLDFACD
Recombinant human CD8ab protein (extracellular domains of CD8a and CD8b with leucine zippers and tags) (human), sequence (P10966 22-170, chain 2 of 2, further chain): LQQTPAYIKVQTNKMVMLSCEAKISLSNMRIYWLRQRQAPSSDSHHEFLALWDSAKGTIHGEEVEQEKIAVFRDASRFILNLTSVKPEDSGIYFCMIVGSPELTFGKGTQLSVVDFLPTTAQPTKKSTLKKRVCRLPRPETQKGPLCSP

“xhCD8a2 (clone SK1, Biolegend) (antibody)”: the concentration giving a half-maximal response (EC50 (read off the curve)) was determined as 0.1 nM.

Source of the values: patent US20220162314A1.
